Experiment [1] addresses T1, 6×His tagged human SIRPα v2 ECD recombinant protein (human). Nature of the experiment: SPR (Biacore). The protocol:
(§1) Anti-SIRPα chimeric antibodies were characterized for binding affinity against human SIRPα v1, human SIRPα v2 and C57BL/6 mouse SIRPα using Biacore (GE). Briefly the antibodies to be tested were captured to CM5 chip (GE) using Human Antibody Capture Kit (GE). The antigens of 6×His tagged human SIRPα v1, human SIRPα v2 and C57BL/6 mouse SIRPα ECD recombinant proteins were serially diluted for multiple doses and injected at 30 μl/min for 180 s. Buffer flow was maintained for dissociation of 400 s. 3 M MgCl₂ was used for chip regeneration. The association and dissociation curves were fit with 1:1 binding model, and the Ka/Kd/KD values for each antibody were calculated.
(§2) hu035.01, the first version of humanized 035, was characterized by FACS assay using CHOK1-human SIRPα v1-1B4 cells, ELISA assay using Fc tagged human SIRPα v2 ECD recombinant protein and SPR analysis using the antigen of 6×His tagged human SIRPα v2 ECD recombinant protein (refer to methods described in Example 3.4, Example 3.3 and Example 4.3). […] In particular, hu035.01 cannot be detected to bind with C57BL/6 mouse SIRPα ECD in ELISA assay possibly due to reduced binding activity (FIG. 5B).

Experiment [2] has as its target T2, full length human SIRPα v1 stably expressed on CHOK1 cells (human, UniProt P78324 31-504).
T2 construct: whole, on cells; also called CHOK1-human SIRPα v1-1B4 cells; CHOK1-human SIRPα v1
Put plainly: FACS on CHOK1-human SIRPα v1-1B4 cells. As for the experimental part: (§3) Species cross reactivity of the purified hybridoma antibodies against human, cyno and mouse SIRPα was determined by FACS assay using CHOK1-human SIRPα v1-1B4 cells, CHOK1-cyno SIRPα-2A2 cells, and CHOK1-C57BL/6 mouse SIRPα-2.22 cells, which stably expressing SIRPα protein. Briefly the antibodies were incubated with 2×10⁵ target cells at 4° C. for 1 hour. After washing, fluorescence labeled anti-mouse or anti-human IgG 2nd antibody (Life Technologies) was added and incubated at 4° C. for 1 hour. Geometric median fluorescence intensity was detected and EC₅₀ was calculated. In particular, it is noted, in contrast to the other antibodies tested in the same experiment, 060 cannot bind with cyno SIRPα and 035 has cross reactivity against C57BL/6 mouse SIRPα.
as §2

Experiment [3] addresses T1, 6×His tagged human SIRPα v2 ECD …. Put plainly: SPR (Biacore), antibody captured, 6×His tagged human SIRPα v2 ECD as analyte. As for the experimental part: as §1, §2
On the technique in general: Surface plasmon resonance follows binding to a sensor surface in real time, without labels.

Experiment [4] deals with T3, 6×His tagged C57BL/6 mouse SIRPα ECD recombinant protein (mouse (C57BL/6), UniProt P97797 32-373).
T3 construct: extracellular domain; bought; also called mSIRPα (C57BL/6); mouse SIRPα (C57BL/6) ECD
T3 sequence: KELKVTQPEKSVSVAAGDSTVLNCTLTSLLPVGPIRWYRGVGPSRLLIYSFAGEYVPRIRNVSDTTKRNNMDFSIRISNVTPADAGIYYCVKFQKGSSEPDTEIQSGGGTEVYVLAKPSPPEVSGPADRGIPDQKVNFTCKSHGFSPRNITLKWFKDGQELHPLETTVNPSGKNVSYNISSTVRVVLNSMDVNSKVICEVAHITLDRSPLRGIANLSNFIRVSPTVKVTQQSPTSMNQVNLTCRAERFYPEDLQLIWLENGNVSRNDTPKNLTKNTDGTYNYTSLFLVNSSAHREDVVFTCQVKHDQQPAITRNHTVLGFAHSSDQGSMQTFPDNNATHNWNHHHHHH
Put plainly: ELISA on coated mouse SIRPα (C57BL/6) ECD, antibody at 10, 1 and 0.1 ug/ml [right panel mSIRPα ECD (C57BL/6].

The target in experiment [5] is T4, Fc tagged human SIRPα v1 ECD recombinant protein (human, UniProt P78324 31-370).
T4 construct: range 1-370; cloned range M1-R370 includes the signal peptide; also called hSIRPα V1; not shown: human IgG Fc region (hFc) of the pCPC vector
T4 sequence (P78324 31-370 limits assumed): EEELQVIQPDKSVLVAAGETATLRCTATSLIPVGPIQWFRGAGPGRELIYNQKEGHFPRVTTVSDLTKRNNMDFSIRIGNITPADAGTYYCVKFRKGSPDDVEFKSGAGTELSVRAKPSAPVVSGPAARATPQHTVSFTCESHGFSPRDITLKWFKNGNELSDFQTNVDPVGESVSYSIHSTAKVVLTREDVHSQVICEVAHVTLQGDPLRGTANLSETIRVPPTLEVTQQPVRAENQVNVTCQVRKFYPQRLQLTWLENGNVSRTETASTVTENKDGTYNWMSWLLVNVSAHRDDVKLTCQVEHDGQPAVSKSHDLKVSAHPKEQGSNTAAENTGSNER
Put plainly: ELISA. A general note: An ELISA detects its analyte on a solid surface through an enzyme-linked reagent.

Experiment [6] concerns the target T5, Fc tagged human SIRPα v2 ECD recombinant protein (human).
T5 construct: range 1-369; cloned range M1-R369 includes the signal peptide; also called hSIRPα V2
Nature of the experiment: ELISA.

Experiment [7] addresses T6, Fc tagged human SIRPβ ECD recombinant protein (human, UniProt O00241 30-371).
T6 construct: range 1-371; cloned range includes the signal peptide; also called hSIRPβ; not shown: human IgG Fc region (hFc) of the pCPC vector
Nature of the experiment: ELISA.

The target of experiment [8] is T7, Fc tagged human SIRPγ ECD recombinant protein (human, UniProt Q9P1W8 29-360).
T7 construct: range 1-360; cloned range includes the signal peptide; also called hSIRPγ; not shown: human IgG Fc region (hFc) of the pCPC vector
T7 sequence (Q9P1W8 29-360 limits assumed, form in doubt): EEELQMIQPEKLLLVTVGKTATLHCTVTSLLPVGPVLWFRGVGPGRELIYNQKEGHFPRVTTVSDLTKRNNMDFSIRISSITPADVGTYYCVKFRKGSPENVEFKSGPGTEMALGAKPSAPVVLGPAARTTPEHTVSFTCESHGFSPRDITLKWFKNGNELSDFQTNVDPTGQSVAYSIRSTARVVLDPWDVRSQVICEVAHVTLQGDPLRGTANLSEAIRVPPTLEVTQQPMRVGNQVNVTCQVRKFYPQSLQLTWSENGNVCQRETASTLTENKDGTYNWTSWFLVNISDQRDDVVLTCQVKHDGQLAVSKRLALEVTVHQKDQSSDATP
Put plainly: ELISA.

The target in experiment [9] is T8, 6×His tagged human SIRPα v8 ECD recombinant protein (human).
T8 construct: extracellular domain; bought; also called hSIRPα V8
Put plainly: ELISA.

Experiment [10] concerns the target T1, 6×His tagged human SIRPα v2 ECD …. Nature of the experiment: SPR (Biacore). The source holds these as a separate data set.
In experiment [11] the target is T9, 6×His tagged human SIRPα v1 ECD recombinant protein (human, UniProt P78324 31-373).
T9 construct: extracellular domain; bought; also called hSIRPα V1 (SPR antigen)
T9 sequence (P78324 other isoform, or with tags, fused parts or gaps): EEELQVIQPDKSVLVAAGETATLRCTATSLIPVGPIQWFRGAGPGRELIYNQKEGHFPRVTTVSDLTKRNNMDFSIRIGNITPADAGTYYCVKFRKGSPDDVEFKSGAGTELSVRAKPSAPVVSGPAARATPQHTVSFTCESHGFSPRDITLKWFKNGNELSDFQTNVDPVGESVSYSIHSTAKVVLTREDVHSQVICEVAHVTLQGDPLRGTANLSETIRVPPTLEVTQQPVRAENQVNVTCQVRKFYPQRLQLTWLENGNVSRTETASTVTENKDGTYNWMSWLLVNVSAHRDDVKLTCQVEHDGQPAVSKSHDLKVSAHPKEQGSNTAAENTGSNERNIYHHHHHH
Nature of the experiment: SPR (Biacore).

Experiment [12] deals with T3, 6×His tagged C57BL/6 mouse SIRPα ECD …. Nature of the experiment: SPR (Biacore).
The target in experiment [13] is T2, full length human SIRPα v1 stably …. Nature of the experiment: FACS on CHOK1 cells. The protocol: as §3
In experiment [14] the target is T10, full length cyno SIRPα stably expressed on CHOK1 cells (cynomolgus monkey, UniProt A0A2K5VYQ9 31-507).
T10 construct: whole, on cells; also called CHOK1-cyno SIRPα-2A2 cells; CHOK1-cyno SIRPα
T10 sequence: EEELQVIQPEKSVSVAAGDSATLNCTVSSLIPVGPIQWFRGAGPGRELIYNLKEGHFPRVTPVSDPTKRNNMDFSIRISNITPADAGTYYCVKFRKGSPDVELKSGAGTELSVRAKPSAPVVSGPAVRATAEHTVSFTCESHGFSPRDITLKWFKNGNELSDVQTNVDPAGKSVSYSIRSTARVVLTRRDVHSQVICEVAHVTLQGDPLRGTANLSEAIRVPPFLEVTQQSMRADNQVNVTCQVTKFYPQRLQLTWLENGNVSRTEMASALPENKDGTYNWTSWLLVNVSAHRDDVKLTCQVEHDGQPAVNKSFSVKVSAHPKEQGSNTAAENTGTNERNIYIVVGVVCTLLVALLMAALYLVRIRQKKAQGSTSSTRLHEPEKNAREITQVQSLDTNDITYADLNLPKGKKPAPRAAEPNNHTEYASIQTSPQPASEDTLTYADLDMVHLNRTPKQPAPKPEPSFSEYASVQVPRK
Put plainly: FACS on CHOK1 cells. The protocol: as §3

For experiment [15], the target named is T11, full length C57BL/6 mouse SIRPα stably expressed on CHOK1 cells (mouse (C57BL/6), UniProt P97797 32-513).
T11 construct: whole, on cells; also called CHOK1-C57BL/6 mouse SIRPα-2.22 cells
T11 sequence (looked up): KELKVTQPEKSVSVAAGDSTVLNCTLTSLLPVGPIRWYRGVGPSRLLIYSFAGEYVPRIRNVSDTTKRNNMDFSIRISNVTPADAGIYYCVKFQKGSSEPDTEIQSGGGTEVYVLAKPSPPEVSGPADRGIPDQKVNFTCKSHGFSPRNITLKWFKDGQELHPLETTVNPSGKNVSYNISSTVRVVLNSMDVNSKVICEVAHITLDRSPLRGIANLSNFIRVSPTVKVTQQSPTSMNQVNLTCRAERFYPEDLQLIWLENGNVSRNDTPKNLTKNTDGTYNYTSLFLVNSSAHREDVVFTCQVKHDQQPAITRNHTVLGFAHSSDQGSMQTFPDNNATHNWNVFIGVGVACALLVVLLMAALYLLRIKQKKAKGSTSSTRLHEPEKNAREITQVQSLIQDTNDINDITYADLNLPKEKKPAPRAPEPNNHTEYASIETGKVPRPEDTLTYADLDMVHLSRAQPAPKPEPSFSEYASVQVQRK
Put plainly: FACS on CHOK1 cells. The protocol: as §3

Experiment [16] concerns the target T1, 6×His tagged human SIRPα v2 ECD …. Put plainly: SPR (Biacore), antibody captured. The protocol: as §1
The target of experiment [17] is T9, 6×His tagged human SIRPα v1 ECD …. Nature of the experiment: SPR (Biacore), antibody captured. The protocol: as §1
Experiment [18] deals with T3, 6×His tagged C57BL/6 mouse SIRPα ECD …. Put plainly: SPR (Biacore), antibody captured. The protocol: as §1
Experiment [19] deals with T12, biotin labeled soluble human SIRPα v1 ECD recombinant protein (human, UniProt P78324 31-373, biotin labeled).
T12 construct: extracellular domain
T12 sequence (P78324 31-373): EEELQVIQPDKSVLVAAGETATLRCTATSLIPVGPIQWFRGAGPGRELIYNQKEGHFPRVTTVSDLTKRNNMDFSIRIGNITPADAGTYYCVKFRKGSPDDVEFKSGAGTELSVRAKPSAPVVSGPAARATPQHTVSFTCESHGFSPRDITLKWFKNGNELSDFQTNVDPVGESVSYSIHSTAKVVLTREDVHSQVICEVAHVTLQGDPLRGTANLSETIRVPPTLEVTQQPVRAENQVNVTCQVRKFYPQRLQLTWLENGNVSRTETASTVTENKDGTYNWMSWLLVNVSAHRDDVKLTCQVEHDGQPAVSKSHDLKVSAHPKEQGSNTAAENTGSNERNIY
Put plainly: competitive ELISA, hSIRPα/CD47 blocking.

Experiment [20] addresses T3, 6×His tagged C57BL/6 mouse SIRPα ECD …. Nature of the experiment: ELISA on coated mouse SIRPα (C57BL/6) ECD [Continued) F].

T1 sequence (chain, as listed by the source): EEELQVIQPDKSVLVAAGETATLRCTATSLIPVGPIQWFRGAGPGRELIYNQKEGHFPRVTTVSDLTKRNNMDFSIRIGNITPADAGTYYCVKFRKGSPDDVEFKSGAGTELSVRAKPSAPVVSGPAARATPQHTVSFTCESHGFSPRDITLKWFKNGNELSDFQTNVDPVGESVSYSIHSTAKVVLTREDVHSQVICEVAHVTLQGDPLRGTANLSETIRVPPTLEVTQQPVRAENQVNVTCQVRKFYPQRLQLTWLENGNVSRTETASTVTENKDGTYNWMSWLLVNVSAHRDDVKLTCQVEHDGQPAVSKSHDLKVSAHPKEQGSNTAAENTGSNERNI
T6 sequence (O00241 30-371 limits assumed, form in doubt): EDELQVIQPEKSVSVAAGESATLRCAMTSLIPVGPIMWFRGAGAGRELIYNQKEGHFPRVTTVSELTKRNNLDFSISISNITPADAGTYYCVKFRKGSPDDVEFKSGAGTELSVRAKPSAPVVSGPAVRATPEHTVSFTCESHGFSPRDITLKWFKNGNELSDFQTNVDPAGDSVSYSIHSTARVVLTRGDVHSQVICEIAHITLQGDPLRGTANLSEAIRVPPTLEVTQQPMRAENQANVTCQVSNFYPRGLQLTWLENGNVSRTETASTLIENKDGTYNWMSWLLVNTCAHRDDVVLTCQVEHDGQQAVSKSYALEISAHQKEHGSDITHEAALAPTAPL

B1: humanized antibody hu035.01 (antibody, V domains shown)
VH: QIQLVQSGSELKKPGASVKVSCKASGYTFTNYAMNWVRQAPGQGLEWMGWINTYTGEPTYAQGFKGRFVFSLDTSVSTAYLQISSLKAEDTAVYYCARTRGYYDFDGGAFDYWGQGTLVTVSS
VL: DIQMTQSPSSLSASVGDRVTITCRASQNVGTHLAWFQQKPGKAPKSLIYSASYRYIGVPSRFSGSGSGTDFTLTISSLQPEDFATYYCQQYNTYPLTFGQGTKLEIK
notes: first humanized version of 035 (CDR graft on VH7-4-1 / VK1-16)
By Kd is commonly meant the free concentration of one partner at which half of the binding sites on the other are occupied at equilibrium, for simple one-to-one binding. Broadly, the EC50 (read off the curve) is the concentration needed to bring the measured effect to its halfway point. Usually koff stands for a measure of how fast the partners let go of each other. One may read the kon as the second-order rate constant of association. With B1, the equilibrium dissociation constant (Kd) in [1] came to 53.4 nM. Further, in experiment [2], the “EC50 (read off the curve)” value was about 0.5 µg/mL. In [3], the koff was found to be 0.00065 s⁻¹ and the kon came out at 12200 M⁻¹ s⁻¹. Also, the binding result in experiment [4] is recorded as “no binding (tested: 10 ug/ml)”.

B2: humanized antibody hu035.17 (antibody, V domains shown)
VH: QIQLVQSGSELKKPGASVKVSCRARGYTLTDYAMNWVRQAPGQGLEWMGFINTYTGEPTYAQGFKGRFVFSLDTSVSTAYLQIGSLKAEDTAVYYCARTRGYYDFDGGAFDYWGQGTLVTVSS
VL: DIQMTQSPSSLSASVGDRVTITCRASQNVGTHLAWYQQKPGKAPKSLIYSAIYRYIGVPSRFSGSGSGTDFTLTISSLQPEDFATYFCQQYNTYPLTFDQGTKLEIKR
The term EC50 denotes the concentration needed to bring the measured effect to its halfway point. The term IC50 denotes the midpoint of a concentration-inhibition curve. For B2, the EC50 was 0.18 nM in experiment [5]; 0.15 nM in experiment [6]; 0.15 nM in experiment [7]; 0.54 nM in experiment [8]; 0.26 nM in [9]; 1.15 nM in experiment [13]. This molecule returned an EC50 in experiment [14] of 0.24 nM. The Kd in experiment [10] was 1.43 nM; in experiment [11] it was 0.86 nM; in [12] it was 25.9 nM; in experiment [16], 2.17 nM; in experiment [17], 0.86 nM; in experiment [18], 25.9 nM. Further, the “MFI at 2 ug/ml” value in experiment [15] was found to be 1120 MFI. In addition, the values for the koff in experiment [16], in experiment [17] and in experiment [18] were 0.000191 s⁻¹, 0.00012 s⁻¹ and 0.0015 s⁻¹, respectively. For the same molecule, the kon in experiment [16] was determined as 88300 M⁻¹ s⁻¹; in experiment [17], 140000 M⁻¹ s⁻¹; in experiment [18] it was 57900 M⁻¹ s⁻¹. Further, the IC50 in [19] was 1.22 nM. In addition, the “EC50 (read off the curve)” value in experiment [20] is about 0.04 µg/mL.

(Values after US20210347908A1 (ELPISCIENCE SUZHOU BIOPHARMA, published 2021).)
